Patent US20230287131A1 (ORIONIS BIOSCIENCES, published 2023)

T1: soluble hTNF-R1 (Peprotech) (human, UniProt P19438 30-211)
T1 construct: extracellular domain; also called p55
T1 sequence (looked up): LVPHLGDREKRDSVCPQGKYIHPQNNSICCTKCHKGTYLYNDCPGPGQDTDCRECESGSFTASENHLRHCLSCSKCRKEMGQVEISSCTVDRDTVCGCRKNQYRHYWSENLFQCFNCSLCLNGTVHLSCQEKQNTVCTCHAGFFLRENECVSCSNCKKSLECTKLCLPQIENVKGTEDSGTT

T2: soluble hTNF-R2 (Peprotech) (human, UniProt P20333 23-257)
T2 construct: extracellular domain; also called p75
T2 sequence (looked up): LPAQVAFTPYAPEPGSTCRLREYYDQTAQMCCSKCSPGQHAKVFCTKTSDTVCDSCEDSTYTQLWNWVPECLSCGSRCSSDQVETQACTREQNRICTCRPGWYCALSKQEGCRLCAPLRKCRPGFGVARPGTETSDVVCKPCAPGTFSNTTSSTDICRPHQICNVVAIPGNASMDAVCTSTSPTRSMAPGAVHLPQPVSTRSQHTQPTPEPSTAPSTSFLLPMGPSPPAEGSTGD


Tests used:
[1] = molecular target: hTNF-R2 on Raji cells or PC60-hTNFR2 cells (human) (UniProt P20333); test: cell-based or functional assay
[2] = molecular target: T1, soluble hTNF-R1 (Peprotech); test: BLI (Octet RED96), affinity relative to WT hTNF
Description: (§1) KD values were calculated using global fitting with a 1:1 model (R²≥0.95).

[3] = molecular target: T1, soluble hTNF-R1 (Peprotech); test: BLI (Octet RED96), His-tagged TNF on HIS1K biosensor, soluble receptor in solution, 1:1 global fit
Description: as §1

[4] = molecular target: T2, soluble hTNF-R2 (Peprotech); test: as above
Description: as §1

| OPRM1 mRNA expression in Raji cells (qPCR), against unstimulated cells [1] [fold] | % WT R1 [2] [%] | Kd [3] [µM] | Kd [4] [nM] | Molecule |
| --- | --- | --- | --- | --- |
| 5 | – | – | – | BclI10 Nanobody (control) - 20xGGS - hTNF Y87H/A145R - 6xHis AcTakine |
| – | 0.35 | 5.1 | 4.78 | hTNF mutant A145T E146D S147D (N-terminal 6xHis tag) (ligand) HHHHHHVRSSSRTPSDKPVAHVVANPQAEGQLQWLNRRANALLANGVELRDNQLVVPSEGLYLIYSQVLFKGQGCPSTHVLLTHTISRIAVSYQTKVNLLSAIKSPCQRETPEGAEAKPWYEPIYLGGVFQLEKGDRLSAEINRPDYLDFTDDGQVYFGIIAL |
